From US20240228626A1 (IMMUNORIZON, published 2024)

T1: NKG2D on primary NK cells purified from healthy donor's PBMCs (human, UniProt P26718 1-216)
T1 construct: whole, on cells
T1 sequence (looked up): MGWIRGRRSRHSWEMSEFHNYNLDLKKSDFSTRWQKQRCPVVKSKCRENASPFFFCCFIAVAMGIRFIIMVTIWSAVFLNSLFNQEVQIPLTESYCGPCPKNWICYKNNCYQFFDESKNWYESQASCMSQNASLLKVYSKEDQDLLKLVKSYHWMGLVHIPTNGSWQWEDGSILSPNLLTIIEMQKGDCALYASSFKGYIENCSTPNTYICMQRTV


Columns and labels:
[1] = molecular target: NKG2D on primary NK cells purified from healthy donor's PBMCs (human) (UniProt P26718); assay: cell-based or functional assay
[2] = molecular target: cyno-NKG2D/Dap10 over-expressed in CHO cells (cyno) (UniProt P61252); assay: FACS on CHO cells over expressing cynoNKG2D
Chain of cyno-NKG2D/Dap10 over-expressed in CHO cells (cyno) (P61252 whole entry): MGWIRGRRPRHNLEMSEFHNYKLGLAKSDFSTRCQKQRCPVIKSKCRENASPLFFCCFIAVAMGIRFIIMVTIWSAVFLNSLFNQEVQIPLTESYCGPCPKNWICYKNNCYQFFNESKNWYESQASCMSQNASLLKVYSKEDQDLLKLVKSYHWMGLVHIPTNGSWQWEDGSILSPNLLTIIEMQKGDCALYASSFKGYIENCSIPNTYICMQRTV

[3] = molecular target: T1, NKG2D on primary NK cells purified from …; assay: FACS on cells
[4] = molecular target: T1, NKG2D on primary NK cells purified from …; assay: FACS on primary NK cells, two concentrations
[5] = molecular target: recombinant human NKG2D-ECD-Fc (extracellular domain of NKG2D fused to human Fc) (human) (UniProt P26718); assay: ELISA on coated NKG2D-ECD-Fc
[6] = molecular target: T1, NKG2D on primary NK cells purified from …; assay: FACS on primary NK cells, 100 nM and 10 nM

Row | EC50 [2] [nM] | EC50 [5] [nM] | Binder | further results
1 |  |  | IM1091 CD3/5T4/NKG2D mut(VL-VH) (protein, part only; not given: anti-CD3 Fab, anti-5T4 scFv, linkers, not shown: another chain or arm of the molecule; small tags and cut ends) VL: QSALTQPASVSGSPGQSITISCSGSSSNIGNNAVNWYQQLPGKAPKLLIYADDLLPSGVSDRFSGSKSGTSAFLAISGLQSEDEADYYCAAWDDSLNGPVFGGGTKLTVL VH: QVQLVESGGGLVKPGGSLRLSCAASGFTFSSYGMHWVRQAPGKGLEWVAFIRYDGSNKYYADSVKGRFTISRDNSKNTLYLQMNSLRAEDTAVYYCAKDAGEGDGTYFDYWGQGTTVTVSS | activation as measured by CD107a MFI on CD56^+gated NK cells population [1]: 35 to 40%
2 | 15 |  | IM1246 CD3x5T4x NKG2D-cl-9 (L-H) (protein, part only; not given: anti-CD3 Fab, anti-5T4 scFv, linkers, not shown: another chain or arm of the molecule; small tags and cut ends) VL: DVLMTQTPLSLPVSLGDQASISCRSSQSIVHTNGNTYLEWYLQKPGQSPKLLIYRVFNRFSGVPDRFSGSGSGTEFTLKISRVEAEDLGVYYCFQGSHVPFTFGAGTKLELK VH: EVKLLQSGGGLVQPGGSLKLSCAASGIDLSRYWMSWVRRAPGKGLEWIGEINPDSSTINYAPSLKDKFIISRDNAKNTLSLQMRKVRSEDTALYFCIRRRYYGSSYWYFDVWGTGTTVTVSS | 
3 |  |  | mAb009 (antibody, V domains shown, Mouse hybridoma mAb, protein A purified; also called IM, NKG2D mouse hybridoma cl- 9; NKG2D-cl-9) VH: EVKLLQSGGGLVQPGGSLKLSCAASGIDLSRYWMSWVRRAPGKGLEWIGEINPDSSTINYAPSLKDKFIISRDNAKNTLSLQMRKVRSEDTALYFCIRRRYYGSSYWYFDVWGTGTTVTVSS VL: DVLMTQTPLSLPVSLGDQASISCRSSQSIVHTNGNTYLEWYLQKPGQSPKLLIYRVFNRFSGVPDRFSGSGSGTEFTLKISRVEAEDLGVYYCFQGSHVPFTFGAGTKLELK | binding result [3]: binds
4 | 30 |  | IM1247 CD3x5T4x NKG2D-cl-9 (H-L) (protein, part only; not given: anti-CD3 Fab, anti-5T4 scFv, linkers, not shown: another chain or arm of the molecule; small tags and cut ends) VH: EVKLLQSGGGLVQPGGSLKLSCAASGIDLSRYWMSWVRRAPGKGLEWIGEINPDSSTINYAPSLKDKFIISRDNAKNTLSLQMRKVRSEDTALYFCIRRRYYGSSYWYFDVWGTGTTVTVSS VL: DVLMTQTPLSLPVSLGDQASISCRSSQSIVHTNGNTYLEWYLQKPGQSPKLLIYRVFNRFSGVPDRFSGSGSGTEFTLKISRVEAEDLGVYYCFQGSHVPFTFGAGTKLELK | 
5 | 2.3 |  | IM1250 CD3x5T4x NKG2D-cl-19 (L-H) (protein, part only; not given: anti-CD3 Fab, anti-5T4 scFv, linkers, not shown: another chain or arm of the molecule; small tags and cut ends) VL: DILLTQSPAILSVSPGERVSFSCRASQSIGTSIHWYQQRTNVSPRLLIKYASESISGIPSRFSGSGSGTDFTLSINNVESEDIADYYCQHSNRWPLTFGAGTKLELK VH: QVQLKESGPGLVAPSQSLSITCTVSGFSLTSYAISWFRQPPGKGLECLGVIWTGGGTNYNSVFKSRLSIIKDNSKSQVFLKMNSLQTDDTARYYCARKGDEGYWGYFDVWGTGTTVTVSS | 
6 |  |  | mAb019 (antibody, V domains shown, Mouse hybridoma mAb, protein A purified; also called IM, NKG2D mouse hybridoma cl- 19; NKG2D-cl-19) VH: QVQLKESGPGLVAPSQSLSITCTVSGFSLTSYAISWFRQPPGKGLECLGVIWTGGGTNYNSVFKSRLSIIKDNSKSQVFLKMNSLQTDDTARYYCARKGDEGYWGYFDVWGTGTTVTVSS VL: DILLTQSPAILSVSPGERVSFSCRASQSIGTSIHWYQQRTNVSPRLLIKYASESISGIPSRFSGSGSGTDFTLSINNVESEDIADYYCQHSNRWPLTFGAGTKLELK | binding result [4]: binds
7 | 5.9 | 1.7 | IM1248 CD3x5T4x NKG2D-cl-10 (L-H) (protein, part only; not given: anti-CD3 Fab, anti-5T4 scFv, linkers, not shown: another chain or arm of the molecule; small tags and cut ends) VL: DIVLTQSPASLAMSLGKRATISCRASESVSIMGTNLINWYQQKLGQPPKLLIYHASNLETGVPARFSGSGSRTDFTLTIDPVEEDDVAVYYCLQGRKIPRTFGGGTKLEIK VH: QVQLQQPGAELVKPGASVKLSCKASGYTFTTYWIQWIKQRPGQGLEWIGEIDPSDIFTNYNQKFKGKATLTVDTSSSTAYMQLSSLTSEDSAVYYCARGVYDGYYVGYFDVWGTGTTVTVSS | 
8 | 5.3 | 0.7 | IM1249 CD3x5T4x NKG2D-cl-10 (H-L) (protein, part only; not given: anti-CD3 Fab, anti-5T4 scFv, linkers, not shown: another chain or arm of the molecule; small tags and cut ends) VH: QVQLQQPGAELVKPGASVKLSCKASGYTFTTYWIQWIKQRPGQGLEWIGEIDPSDIFTNYNQKFKGKATLTVDTSSSTAYMQLSSLTSEDSAVYYCARGVYDGYYVGYFDVWGTGTTVTVSS VL: DIVLTQSPASLAMSLGKRATISCRASESVSIMGTNLINWYQQKLGQPPKLLIYHASNLETGVPARFSGSGSRTDFTLTIDPVEEDDVAVYYCLQGRKIPRTFGGGTKLEIK | 
9 |  |  | mAb010 (antibody, V domains shown, Mouse hybridoma mAb, protein A purified; also called IM, NKG2D mouse hybridoma cl- 10; NKG2D-cl-10) VH: QVQLQQPGAELVKPGASVKLSCKASGYTFTTYWIQWIKQRPGQGLEWIGEIDPSDIFTNYNQKFKGKATLTVDTSSSTAYMQLSSLTSEDSAVYYCARGVYDGYYVGYFDVWGTGTTVTVSS VL: DIVLTQSPASLAMSLGKRATISCRASESVSIMGTNLINWYQQKLGQPPKLLIYHASNLETGVPARFSGSGSRTDFTLTIDPVEEDDVAVYYCLQGRKIPRTFGGGTKLEIK | binding result [6]: binds
10 | 21 | 2.6 | IM1244 CD3x5T4x NKG2D-cl-1 (L-H) (protein, part only; not given: anti-CD3 Fab, anti-5T4 scFv, linkers, not shown: another chain or arm of the molecule; small tags and cut ends) VL: DIVLTQSPASLAVSLGQRAIISCKASQSVSFAGSNLMHWYQQKPGQQPKLLIYRASNLEVGVPTRFSGSGSGTDFTLNIHPVDEDDAATYYCQQSREYPFTFGSGTKLEIK VH: EVQLQQSGPELVKPGASVKISCKASAFNFTSYYLHWVKQGPGQGLEWIGWIYPGSGDTKYNEKFKGKATLTADTSSSAANMKLSSLTSEDSAVYYCARNRIFDSYYVDSMDYWGQGTSVTVSS | 
11 |  |  | mAb001 (antibody, V domains shown, Mouse hybridoma mAb, protein A purified; also called IM, NKG2D mouse hybridoma cl- 1; NKG2D-cl-1) VH: EVQLQQSGPELVKPGASVKISCKASAFNFTSYYLHWVKQGPGQGLEWIGWIYPGSGDTKYNEKFKGKATLTADTSSSAANMKLSSLTSEDSAVYYCARNRIFDSYYVDSMDYWGQGTSVTVSS VL: DIVLTQSPASLAVSLGQRAIISCKASQSVSFAGSNLMHWYQQKPGQQPKLLIYRASNLEVGVPTRFSGSGSGTDFTLNIHPVDEDDAATYYCQQSREYPFTFGSGTKLEIK | binding result [6]: binds
12 | 13 | 1.1 | IM1245 CD3x5T4x NKG2D-cl-1 (H-L) (protein, part only; not given: anti-CD3 Fab, anti-5T4 scFv, linkers, not shown: another chain or arm of the molecule; small tags and cut ends) VH: EVQLQQSGPELVKPGASVKISCKASAFNFTSYYLHWVKQGPGQGLEWIGWIYPGSGDTKYNEKFKGKATLTADTSSSAANMKLSSLTSEDSAVYYCARNRIFDSYYVDSMDYWGQGTSVTVSS VL: DIVLTQSPASLAVSLGQRAIISCKASQSVSFAGSNLMHWYQQKPGQQPKLLIYRASNLEVGVPTRFSGSGSGTDFTLNIHPVDEDDAATYYCQQSREYPFTFGSGTKLEIK | 
